{"source": "patent CN114591431A", "biological_target": "重组人GAS6 his 蛋白(Novoprotein，Cat#C01W) (human) (UniProt Q14393)", "sequence (Q14393 31-678 limits assumed, stated change not applied)": "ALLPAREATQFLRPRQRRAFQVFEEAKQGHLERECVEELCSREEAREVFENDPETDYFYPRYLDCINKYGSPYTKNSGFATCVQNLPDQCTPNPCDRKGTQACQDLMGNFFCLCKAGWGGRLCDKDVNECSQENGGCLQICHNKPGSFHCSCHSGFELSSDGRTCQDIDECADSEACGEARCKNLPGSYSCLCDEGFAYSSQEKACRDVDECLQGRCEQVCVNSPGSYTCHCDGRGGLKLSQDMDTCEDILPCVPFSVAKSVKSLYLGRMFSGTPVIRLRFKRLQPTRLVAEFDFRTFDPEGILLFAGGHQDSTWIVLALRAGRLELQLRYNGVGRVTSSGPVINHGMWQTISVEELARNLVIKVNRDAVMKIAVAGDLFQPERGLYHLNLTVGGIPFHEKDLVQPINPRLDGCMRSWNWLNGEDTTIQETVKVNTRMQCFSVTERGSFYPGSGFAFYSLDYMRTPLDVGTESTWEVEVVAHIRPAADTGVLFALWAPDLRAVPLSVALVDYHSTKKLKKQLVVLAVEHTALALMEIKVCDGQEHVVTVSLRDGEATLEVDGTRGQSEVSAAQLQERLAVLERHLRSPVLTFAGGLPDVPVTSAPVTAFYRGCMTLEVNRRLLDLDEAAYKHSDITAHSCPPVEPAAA", "experiment": "ELISA, coated human GAS6 his 0.5 ug/ml, positive control"}
{"substance": "anti-huGas6 antibody (Santa cruz, sc-376087)", "values": [{"measurement": "EC50", "result": 0.43, "unit": "nM"}]}
